Patent US20220395553A1 (COHBAR, published 2022)
Square brackets hold non-standard residues; d marks the D form. Ends that are not written are not given here.

Columns and labels:
[1] = molecular target: ProLink tagged human CXCR4 (C2C12 CXCR4 β-Arrestin cell line) (human, UniProt P61073 1-352); test: cell-based or functional assay
[2] = molecular target: T1, CXCR4 on cultured U937 and Jurkat cells (human, UniProt P61073 1-352); test: cell-based or functional assay
[3] = molecular target: T2, SNAP tagged-CXC4 receptor labeled with terbium (Tag-lite CXCR4 cells, HEK293) (UniProt P61073 1-352, SNAP tag labeled with terbium fluorescent dye); test: HTRF competition on Tag-lite CXCR4 HEK293 cells; competitor labelled CXCL12
T2 construct: whole, on cells; Bought frozen cells (PerkinElmer-CisBio), HEK293 transiently expressing the receptor; also called terbium labeled CXCR receptor
Experimental: Peptides were initially prepared as 1 mM stock in H₂O. […] Following the manufacture's protocol, a frozen aliquot of Tag-lite CXCR4 cells was thawed and immediately seeded onto 384-well plates in TLB. […] The plates were covered in aluminum foil and left at room temperature for 3 hours. Following the 3 hour incubation period, the plates were removed from the incubator and fluorescence measured using a Cytation 1 plate reader using a HTRF filter cube ([…]; BioTek; Winooski, Vt.).

[4] = molecular target: T2, SNAP tagged-CXC4 receptor labeled with …; test: as above; remark: listed apart in the source
Experimental: Peptides were initially prepared as 1 mM stock in H₂O and tested at a final concentration of 400 nM. Following the manufacture's protocol, a frozen aliquot of Tag-lite CXCR4 cells was thawed and immediately seeded onto 384-well plates in TLB. Immediately following the addition of cells, 400 nM peptide (final concentration) in TLB was added to the appropriate well. […] The plates were covered in aluminum foil and left at room temperature for 3 hours. Following the 3 hour incubation period, the plates were removed from the incubator and fluorescence measured using a Cytation 1 plate reader using a HTRF filter cube ([…]; BioTek; Winooski, Vt.).

[5] = molecular target: T1, CXCR4 on cultured U937 and Jurkat cells; test: cell-based or functional assay; remark: listed apart in the source

ProLink tagged human CXCR4 (C2C12 CXCR4 β-Arrestin cell line), sequence (P61073 whole entry): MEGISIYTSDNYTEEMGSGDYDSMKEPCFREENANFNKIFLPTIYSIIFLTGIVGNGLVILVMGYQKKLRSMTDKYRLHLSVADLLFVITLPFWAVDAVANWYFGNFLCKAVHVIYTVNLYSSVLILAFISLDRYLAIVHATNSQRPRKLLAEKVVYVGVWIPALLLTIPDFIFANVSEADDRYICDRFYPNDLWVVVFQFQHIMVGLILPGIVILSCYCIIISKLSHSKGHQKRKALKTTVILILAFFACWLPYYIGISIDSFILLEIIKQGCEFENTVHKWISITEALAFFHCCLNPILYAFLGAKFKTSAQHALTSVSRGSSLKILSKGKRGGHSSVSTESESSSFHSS
T1 sequence (P61073 whole entry): as above
T2 sequence (P61073 whole entry): as above

Binder | IC50 for Inhibition of CXCR4 Activation (β-Arrestin recruitment) [1] [nM] | Percent Inhibition of CXCL12 Mediated Migration (1.1 µM Test Article; Jurkat cells) [2] [%] | IC50 [3] [nM] | Percent Inhibition of CXCR4/CXCL12 Binding (400 nM peptide) [4] [%] | Percent Inhibition of CXCR4/CXCL12 Induced p-MEK (100 nM Test Article) [5] [%] | Percent Inhibition of CXCR4/CXCL12 Induced p-MEK (1 µM Test Article) [5] [%]
LDRYHHS[dA]RSSLRPYTK [SEQ ID NO: 8] | 3 | 94 | 9 | 86 | 32 | 88
LERYHHSVRSSLRPFTK [SEQ ID NO: 60] | 4 | 33 | 17 | 60 | 34 | 82
LERYHHSVRSSLRGYTK [SEQ ID NO: 80] | 4 | 71 | 6 | 88 | 52 | 96
LERYHHS[dA]RSSLRPYTK-NH2 (N-terminus assumed; SMILES CC(C)C[C@H](NC(=O)[C@H](CO)NC(=O)[C@H](CO)NC(=O)[C@H](CCCNC(=N)N)NC(=O)[C@@H](C)NC(=O)[C@H](CO)NC(=O)[C@H](Cc1c[nH]cn1)NC(=O)[C@H](Cc1c[nH]cn1)NC(=O)[C@H](Cc1ccc(O)cc1)NC(=O)[C@H](CCCNC(=N)N)NC(=O)[C@H](CCC(=O)O)NC(=O)[C@@H](N)CC(C)C)C(=O)N[C@@H](CCCNC(=N)N)C(=O)N1CCC[C@H]1C(=O)N[C@@H](Cc1ccc(O)cc1)C(=O)N[C@H](C(=O)N[C@@H](CCCCN)C(N)=O)[C@@H](C)O) [SEQ ID NO: 57] | 33 | 30 | – | – | 10 | 72
LRRYHHSVRSTLRPYTK [SEQ ID NO: 71] | 3 | – | 133 | 29 | 56 | 94
LERYHHS[dA]RSSLRPFTK [SEQ ID NO: 61] | 8 | – | – | 54 | 15 | 46
LERFHHS[dA]RSSLRPYTK [SEQ ID NO: 55] | 4 | – | 31 | 56 | 16 | 72
LRRFHHSVRSSLRPYTK [SEQ ID NO: 53] | 3 | 59 | 108 | 5 | 62 | 98
LRRYHHSVRSSLRPYSK [SEQ ID NO: 72] | 5 | – | 589 | 6 | 8 | 86
LDRYHHSVRSSLRPYTK [SEQ ID NO: 7] | 1.5 | 52 | 5 | 89 | 60 | 96
LRRYHHSVRSSLDPYTK [SEQ ID NO: 67] | 14 | – | 380 | 3 | -8 | 42
LERYNHS[dA]RSSLRPYTK [SEQ ID NO: 43] | 14 | – | – | 53 | 5 | 40
LRDYHHSVRSSLRPYTK [SEQ ID NO: 36] | > 1000 | – | 5990 | -11 | 22 | -5
[dA]RRYHHSVRSSLRPYTK [SEQ ID NO: 33] | 7 | – | 42 | 77 | 7 | 42
LRRYHHSVDSSLRPYTK [SEQ ID NO: 66] | 27 | – | 563 | -5 | -7 | 13
LRRYHHTVRSSLRPYTK [SEQ ID NO: 38] | 3 | – | 175 | 12 | 51 | 96
[dA]ERYHHSVRSSLRPYTK [SEQ ID NO: 34] | > 1000 | – | 4540 | -17 | -1 | 2
LERYHHSVRSSLRPYT [SEQ ID NO: 18] | 24 | 66 | 18 | 57 | 45 | 78
[dA]ERYHHS[dA]RSSLRPYTK [SEQ ID NO: 35] | 291 | – | 6310 | -13 | -7 | -6
LERYHHS[dA]RSSLRGYTK [SEQ ID NO: 81] | 3 | – | 23 | 81 | -16 | 20
LERFHHSVRSSLRPYTK [SEQ ID NO: 54] | 3 | 54 | 8 | 79 | 46 | 92
LRRYHHSVRSSLRPFTK [SEQ ID NO: 59] | 3 | – | 382 | -3 | 43 | 93
